Measurements taken from the Immune Epitope Database (IEDB).

Tests used:
[1] = target: HLA-B*40:01; experiment: IEDB peptide-MHC binding, purified MHC/direct/fluorescence; filed as Kd, often an IC50 or EC50 that approximates it; ≥ and ≤ were set here for values at or beyond the usual limits of such assays
[2] = target: HLA-B*18:01; experiment: as above
[3] = target: HLA-B*48:01; experiment: as above
[4] = target: HLA-A*02:01; experiment: IEDB peptide-MHC binding, purified MHC/competitive/radioactivity; filed as Kd, often an IC50 or EC50 that approximates it; ≥ and ≤ were set here for values at or beyond the usual limits of such assays; conditions: source organism: Vaccinia virus WR
[5] = target: HLA-B*53:01; experiment: as above; conditions: source organism: Vaccinia virus WR
[6] = target: HLA-B*35:01; experiment: as above; conditions: source organism: Vaccinia virus WR
[7] = target: HLA-A*68:02; experiment: as above; conditions: source organism: Vaccinia virus WR
[8] = target: HLA-B*54:01; experiment: as above; conditions: source organism: Vaccinia virus WR
[9] = target: HLA-A*02:02; experiment: as above; conditions: source organism: Vaccinia virus WR
[10] = target: HLA-A*11:01; experiment: as above; conditions: source organism: Vaccinia virus WR
[11] = target: HLA-A*03:01; experiment: as above; conditions: source organism: Vaccinia virus WR
[12] = target: HLA-A*02:03; experiment: as above; conditions: source organism: Vaccinia virus WR
[13] = target: HLA-B*51:01; experiment: as above; conditions: source organism: Vaccinia virus WR
[14] = target: HLA-A*31:01; experiment: as above; conditions: source organism: Vaccinia virus WR
[15] = target: HLA-B*07:02; experiment: as above; conditions: source organism: Vaccinia virus WR
[16] = target: HLA-A*02:06; experiment: as above; conditions: source organism: Vaccinia virus WR
[17] = target: HLA-A*68:01; experiment: as above; conditions: source organism: Vaccinia virus WR
[18] = target: HLA-A*33:01; experiment: as above; conditions: source organism: Vaccinia virus WR
[19] = target: HLA-A*26:01; experiment: IEDB peptide-MHC binding, purified MHC/direct/fluorescence; filed as Kd, often an IC50 or EC50 that approximates it; ≥ and ≤ were set here for values at or beyond the usual limits of such assays; conditions: source organism: Mammarenavirus amapariense
[20] = target: HLA-A*11:01; experiment: IEDB peptide-MHC binding, purified MHC/competitive/fluorescence; ≥ and ≤ were set here for values at or beyond the usual limits of such assays
[21] = target: HLA-A*03:01; experiment: as above
[22] = target: HLA-A*02:01; experiment: as above
[23] = target: HLA-A*02:01; experiment: IEDB peptide-MHC binding, purified MHC/competitive/fluorescence; filed as Kd, often an IC50 or EC50 that approximates it; ≥ and ≤ were set here for values at or beyond the usual limits of such assays; conditions: source organism: Burkholderia mallei SAVP1
[24] = target: HLA-A*02:19; experiment: as above; conditions: source organism: Burkholderia mallei SAVP1
[25] = target: HLA-A*02:12; experiment: IEDB peptide-MHC binding, purified MHC/direct/fluorescence; filed as Kd, often an IC50 or EC50 that approximates it; ≥ and ≤ were set here for values at or beyond the usual limits of such assays; conditions: source organism: Influenza A virus (A/ruddy turnstone/Delaware/67/1998(H12N4))
[26] = target: HLA-A*68:02; experiment: as above; conditions: source organism: Influenza A virus (A/ruddy turnstone/Delaware/67/1998(H12N4))
[27] = target: HLA-A*11:01; experiment: as above; conditions: source organism: Influenza A virus (A/ruddy turnstone/Delaware/67/1998(H12N4))
[28] = target: HLA-A*02:19; experiment: as above; conditions: source organism: Influenza A virus (A/ruddy turnstone/Delaware/67/1998(H12N4))
[29] = target: HLA-A*02:03; experiment: as above; conditions: source organism: Influenza A virus (A/ruddy turnstone/Delaware/67/1998(H12N4))
[30] = target: HLA-B*27:03; experiment: IEDB peptide-MHC binding, purified MHC/competitive/fluorescence; filed as Kd, often an IC50 or EC50 that approximates it; ≥ and ≤ were set here for values at or beyond the usual limits of such assays; conditions: source organism: Influenza A virus (A/ruddy turnstone/Delaware/67/1998(H12N4))
[31] = target: HLA-B*46:01; experiment: as above; conditions: source organism: Influenza A virus (A/ruddy turnstone/Delaware/67/1998(H12N4))
[32] = target: HLA-A*69:01; experiment: as above; conditions: source organism: Influenza A virus (A/ruddy turnstone/Delaware/67/1998(H12N4))
[33] = target: HLA-B*18:01; experiment: as above; conditions: source organism: Influenza A virus (A/ruddy turnstone/Delaware/67/1998(H12N4))
[34] = target: HLA-B*57:01; experiment: as above; conditions: source organism: Influenza A virus (A/ruddy turnstone/Delaware/67/1998(H12N4))
[35] = target: HLA-B*51:01; experiment: as above; conditions: source organism: Influenza A virus (A/ruddy turnstone/Delaware/67/1998(H12N4))
[36] = target: HLA-A*26:01; experiment: as above; conditions: source organism: Influenza A virus (A/ruddy turnstone/Delaware/67/1998(H12N4))
[37] = target: HLA-B*39:01; experiment: as above; conditions: source organism: Influenza A virus (A/ruddy turnstone/Delaware/67/1998(H12N4))
[38] = target: HLA-A*24:02; experiment: IEDB peptide-MHC binding, purified MHC/competitive/fluorescence; ≥ and ≤ were set here for values at or beyond the usual limits of such assays; conditions: source organism: Zaire ebolavirus
[39] = target: HLA-A*29:02; experiment: IEDB peptide-MHC binding, purified MHC/competitive/fluorescence; filed as Kd, often an IC50 or EC50 that approximates it; ≥ and ≤ were set here for values at or beyond the usual limits of such assays
[40] = target: HLA-B*44:02; experiment: IEDB peptide-MHC binding, purified MHC/direct/fluorescence; filed as Kd, often an IC50 or EC50 that approximates it; ≥ and ≤ were set here for values at or beyond the usual limits of such assays; conditions: source organism: Influenza A virus (A/chicken/CA/375TR/2002(H6N2))
[41] = target: HLA-B*08:01; experiment: as above; conditions: source organism: Yersinia pestis CA88-4125
[42] = source organism: Burkholderia ambifaria AMMD
[43] = source organism: Francisella tularensis subsp. holarctica LVS
[44] = source organism: Zaire ebolavirus
[45] = source organism: Sudan ebolavirus
[46] = source organism: Vaccinia virus Copenhagen
[47] = source organism: Influenza A virus (A/chicken/CA/375TR/2002(H6N2))

AELHAKGAY
Kd [1, 42]: ≥ 20 µM | Kd [2, 42]: 1.12 µM

AEVCAHHLF
Kd [1, 43]: 0.0035 µM | Kd [2, 43]: 0.0036 µM

AEWGWTATM
Kd ([3]; source organism: Giardia lamblia ATCC 50803): ≥ 20 µM

AFVRFSTDK
Kd [4]: ≥ 78.1 µM | Kd [5]: ≥ 78.2 µM | Kd [6]: ≥ 33.9 µM | Kd [7]: ≥ 76.9 µM | Kd [8]: ≥ 78.1 µM | Kd [9]: ≥ 77.8 µM | Kd [10]: 8.6 µM | Kd [11]: ≥ 25.4 µM | Kd [12]: ≥ 78.1 µM | Kd [13]: ≥ 77.5 µM | Kd [14]: 3.1 µM | Kd [15]: ≥ 77.5 µM | Kd [16]: ≥ 77.1 µM | Kd [17]: ≥ 57.7 µM | Kd [18]: ≥ 77.7 µM

DEYQGNHMF
Kd ([2]; source organism: Vibrio parahaemolyticus): 0.0006 µM

EKPGNRNPY
Kd [19]: 2.78 µM

FTVVSNGAK
IC50 [20, 44]: 1.51 µM | IC50 [21, 44]: 17.7 µM

GLRKRSRRQ
IC50 [21, 45]: 46.4 µM

GLSLLQLPR
IC50 [22, 45]: 16.8 µM | IC50 [20, 45]: 3.53 µM | IC50 [21, 45]: 2.19 µM

IMALKQAGL
Kd [23]: 0.0445 µM | Kd [24]: 0.0045 µM

IVFMWAIHH
Kd [25]: ≥ 20 µM | Kd [26]: ≥ 20 µM | Kd [27]: 0.187 µM | Kd [28]: ≥ 20 µM | Kd [29]: ≥ 20 µM | Kd [30]: ≥ 20 µM | Kd [31]: ≥ 20 µM | Kd [32]: ≥ 20 µM | Kd [33]: ≥ 20 µM | Kd [34]: ≥ 20 µM | Kd [35]: ≥ 20 µM | Kd [36]: ≥ 20 µM | Kd [37]: ≥ 20 µM

KFYSKISEY
IC50 ([21]; source organism: Human papillomavirus 16): 3 µM

KLYKNKSKQ
IC50 [22, 46]: ≥ 81.8 µM | IC50 [20, 46]: ≥ 1360 µM | IC50 [21, 46]: 3.01 µM

LLPAVSSGK
IC50 [22, 44]: ≥ 73.6 µM | IC50 [38]: ≥ 79.6 µM | IC50 [20, 44]: 3.64 µM | IC50 [21, 44]: 1.9 µM

LMISGDLPQ
Kd ([39]; source organism: Sinorhizobium meliloti 1021): 0.0373 µM

MTIHFFLNE
Kd ([39]; source organism: Entamoeba histolytica HM-1:IMSS): 0.192 µM

REITFHGAK
Kd [1, 47]: 0.412 µM | Kd [40]: ≥ 20 µM | Kd [2, 47]: 1.22 µM

RKNGGNFLL
Kd ([3]; source organism: Campylobacter jejuni subsp. jejuni 81116): 0.145 µM

SMKTRTAWF
Kd [41]: 0.007 µM

STIGYALKH
Kd ([39]; source organism: Bacillus anthracis str. CDC 684): 0.0394 µM

STSDGKHLQ
Kd ([39]; source organism: Cryptosporidium parvum Iowa II): 0.284 µM

VDFGIIWRY
Kd ([39]; source organism: Vibrio cholerae 2740-80): 0.1 µM

VTGILQLPR
IC50 [20, 44]: 0.36 µM | IC50 [21, 44]: 6.83 µM

YDPARYPLY
Kd ([39]; source organism: Vibrio vulnificus YJ016): 0.0305 µM
